Measurements published in patent US20170204445A1, “IN VIVO SITE-SPECIFIC PROTEIN TAGGING USING ENGINEERED SORTASE VARIANTS” (priority 2016, published 2017).

B1: Wild-type SrtA: wild-type Staphylococcus aureus sortase A Δ59, SEQ ID NO: 26 (protein, listed as Homo sapiens)
chain: MQAKPQIPKDKSKVAGYIEIPDADIKEPVYPGPATPEQLNRGVSFAEENESLDDQNISIAGHTFIDRPNYQFTNLKAAKKGSMVYFKVGNETRKYKMTSIRDVKPTDVEVLDEQKGKDKQLTLITCDDYNEKTGVWEKRKIFVATEVKLEHHHHHH
B2: Fn10-His-srt: engineered fibronectin domain Fn10 with His tag and C terminal LPETGG, SEQ ID NO: 29 (protein, listed as Homo sapiens)
chain: MLVPRGSSDVPRDLEVVAATPTSLLISWDAPAVTVRYYRITYGETGGNSPVQEFTVPGSKSTATISGLKPGVDYTITVYAVTPRGDWNEGSKPISINYRTGKKGKGGHHHHHHLPETGG
modifications: His tag, LPETGG

Experiments:
LPETGSW peptide = LPETGSW peptide (Staphylococcus aureus, UniProt Q2FV99, G167E); assay: Transpeptidation of LPETGSW peptide with wild-type SrtA; conditions: 15-fold more enzyme (150 μM), 20 hours, 37° C., 25 mM Tris.HCl pH 7.5, 10 mM CaCl2
SrtA7M = molecular target: T1, SrtA7M (Staphylococcus aureus, UniProt Q2FV99, D160N/D165A/E105K/E108Q/G167E/K190E/K196T/P94R); assay: In vitro conjugation of purified LPETGG-tagged proteins by SrtA7M (ESI-TOF LC-MS); assay type: biochemical; conditions: 10 μM SrtA7M, 100 mM Azp or propargylamine, 8 hours, 37° C.
T1 construct: […]; made in house; host or cells: E. coli
Protocol: FIG. 3. Transpeptidation of purified proteins. Purified proteins expressed with a C-terminal LPETGG sequence were incubated with 10 μM SrtA7M for 8 hours at 37° C. along with the desired amine. Proteins were then diluted 10-fold with 0.2% formic acid and analyzed by ESI-TOF LC-MS. (A) Maltose binding protein. (B) Sf9 nanobody, and (C) Fibronectin Fn10, all show 80-100% conversion to the desired conjugate.
FIG. 9. Sortase conjugation time course.
FIG. 10. In vitro conjugation of sfGFP derivatives. (A) His-sfGFP-srt and (B) sfGFPHis-srt were incubated with 10 μM SrtA7M and 100 mM Azp or propargylamine for 8 hours at 37° C.
We next determined the ability of SrtA7M to modify purified proteins. We incubated several proteins containing a C terminal LPETGG sequence (srt) with 10 μM enzyme and either 100 mM Azp or propargylamine, followed by quenching with formic acid. […] To define the effective range of reaction conditions, we tested the conjugation of MBP-srt with Azp at different time points and substrate concentrations.
In vitro conjugation of proteins. Purified MBP-srt, His-sfGFP-srt, Nanobody-His-srt, Glutathione-S-transferase-His-srt, Fibronectin-His-srt, and sfGFP-His-srt were labeled after purification in 100 mM ammonium bicarbonate buffer pH 7.8. […]

| Molecule | conversion of LPETGSW peptide (LPETGSW peptide) | conversion / modification of the protein with the amine (SrtA7M) |
| --- | --- | --- |
| B1 | modest conversion |  |
| B2 |  | complete conversion |
